The text below walks through data of US20240139265A1.

In one assay the target is HLA-A*01:01 class I complex (biotinylated heavy chain with beta2-microglobulin) (human). The experiment in a line: UV peptide exchange + HLA class I ELISA; % of Pos control peptide. The conditions noted are these: remark: other sources report otherwise. Background: ELISA stands for enzyme-linked immunosorbent assay.
With RAVRRMNTF (here or on the partner: biotinylated heavy chain) [P17 9-mer neoantigen peptide … (MSMB-NOCA4 fusion)], the exchange rate with Pos peptide was 4.9%.
Still for that read-out and setting: as for YCMAAPMGL (here or on the partner: biotinylated heavy chain) [P76 9-mer neoantigen peptide … (AR-V3 splice variant)], the figure is 0.1%.
For the molecule QLIAMDSAI (here or on the partner: biotinylated heavy chain) [P22 9-mer neoantigen peptide … (SLC45A3-ELK4 fusion)], the exchange rate with Pos peptide stood at 4.4%.
On the same count and under the same terms, as for CPMSRLRLA (here or on the partner: biotinylated heavy chain) [P46 9-mer neoantigen peptide … (TP53 (R213D) frameshift)], the figure is 2.4%.
Turning to YQFTFDLLI (here or on the partner: biotinylated heavy chain) [P48 9-mer neoantigen peptide … (AR.p.H875Y missense)], the exchange rate with Pos peptide was found to be 4.3%.
Turning to IPVLTRWPL (here or on the partner: biotinylated heavy chain) [P19 9-mer neoantigen peptide … (TMEM222-LOC644961 fusion)], the exchange rate with Pos peptide came to 5.2%.
RAKCKFSIL (here or on the partner: biotinylated heavy chain) [P56 9-mer neoantigen peptide … (SPOP(F102C) missense)]: the exchange rate with Pos peptide turned out to be 2.6%.
Same read-out and setting: as for RVGNCKHLK (here or on the partner: biotinylated heavy chain) [P82 9-mer neoantigen peptide … (AR-V7 splice variant)], the figure is 1.5%; as for LMAQRLLLR (here or on the partner: biotinylated heavy chain) [P97 9-mer neoantigen peptide … (FOXRED2-TXN2 fusion)], 2.5%.
Same read-out and setting: as for FLFLLLPLS (here or on the partner: biotinylated heavy chain) [P87 9-mer neoantigen peptide … (AR-Intron splice variant)], the figure is 1.1%; as for CYLGRQKRF (here or on the partner: biotinylated heavy chain) [P61 9-mer neoantigen peptide … (FOXA1.p.R261G missense)], 1.7%.
With HVPKILSGK (here or on the partner: biotinylated heavy chain) [P58 9-mer neoantigen peptide … (AR (Q903H) missense)], the exchange rate with Pos peptide amounted to 2.5%.
In the case of IVWWCPMSR (here or on the partner: biotinylated heavy chain) [P98 9-mer neoantigen peptide … (TP53 (R213D) frameshift)], the exchange rate with Pos peptide worked out at 2.5%.
With YLRRQKRLK (here or on the partner: biotinylated heavy chain) [P60 9-mer neoantigen peptide … (FOXA1.p.F266L missense)], the exchange rate with Pos peptide was found to be 3.1%.

A further assay has as its target HLA-A*02:01 class I complex (biotinylated heavy chain with beta2-microglobulin) (human). The description is as above. The following applies: remark: other sources report otherwise.
For YCMAAPMGL (here or on the partner: biotinylated heavy chain) [P76 9-mer neoantigen peptide … (AR-V3 splice variant)], the exchange rate with Pos peptide amounted to 85.9%.
On the same count and under the same terms, as for QLIAMDSAI (here or on the partner: biotinylated heavy chain) [P22 9-mer neoantigen peptide … (SLC45A3-ELK4 fusion)], the figure is 46.9%.
For CPMSRLRLA (here or on the partner: biotinylated heavy chain) [P46 9-mer neoantigen peptide … (TP53 (R213D) frameshift)], the exchange rate with Pos peptide is 14.4%.
Turning to LLERNSFEV (here or on the partner: biotinylated heavy chain) [P73 9-mer neoantigen peptide … (TP53 (G266E) missense)], the exchange rate with Pos peptide was determined as 89.2%.
For YQFTFDLLI (here or on the partner: biotinylated heavy chain) [P48 9-mer neoantigen peptide … (AR.p.H875Y missense)], the exchange rate with Pos peptide was found to be 99.3%.
Still for that read-out and setting: as for IPVLTRWPL (here or on the partner: biotinylated heavy chain) [P19 9-mer neoantigen peptide … (TMEM222-LOC644961 fusion)], the figure is 8.2%; as for RAKCKFSIL (here or on the partner: biotinylated heavy chain) [P56 9-mer neoantigen peptide … (SPOP(F102C) missense)], 8.4%; as for RVGNCKHLK (here or on the partner: biotinylated heavy chain) [P82 9-mer neoantigen peptide … (AR-V7 splice variant)], 6.3%.
On the same count and under the same terms, the result for LMAQRLLLR (here or on the partner: biotinylated heavy chain) [P97 9-mer neoantigen peptide … (FOXRED2-TXN2 fusion)] reads 4.6%; that for FLFLLLPLS (here or on the partner: biotinylated heavy chain) [P87 9-mer neoantigen peptide … (AR-Intron splice variant)], 64%.
On to CYLGRQKRF (here or on the partner: biotinylated heavy chain) [P61 9-mer neoantigen peptide … (FOXA1.p.R261G missense)], for which the exchange rate with Pos peptide came to 5.8%.
Take HVPKILSGK (here or on the partner: biotinylated heavy chain) [P58 9-mer neoantigen peptide … (AR (Q903H) missense)]: the exchange rate with Pos peptide is 11.8%.
For IVWWCPMSR (here or on the partner: biotinylated heavy chain) [P98 9-mer neoantigen peptide … (TP53 (R213D) frameshift)], the exchange rate with Pos peptide was determined as 7.9%.
For the molecule YLRRQKRLK (here or on the partner: biotinylated heavy chain) [P60 9-mer neoantigen peptide … (FOXA1.p.F266L missense)], the exchange rate with Pos peptide came to 7.9%.

The next assay deals with HLA-A*03:01 class I complex (biotinylated heavy chain with beta2-microglobulin) (human). The assay is described as above. The conditions noted are these: remark: other sources report otherwise.
For RAVRRMNTF (here or on the partner: biotinylated heavy chain) [P17 9-mer neoantigen peptide … (MSMB-NOCA4 fusion)], the exchange rate with Pos peptide stood at 3.8%.
Still for that read-out and setting: as for YCMAAPMGL (here or on the partner: biotinylated heavy chain) [P76 9-mer neoantigen peptide … (AR-V3 splice variant)], the figure is 6%; as for QLIAMDSAI (here or on the partner: biotinylated heavy chain) [P22 9-mer neoantigen peptide … (SLC45A3-ELK4 fusion)], 4.8%; as for CPMSRLRLA (here or on the partner: biotinylated heavy chain) [P46 9-mer neoantigen peptide … (TP53 (R213D) frameshift)], 10.3%.
Consider LLERNSFEV (here or on the partner: biotinylated heavy chain) [P73 9-mer neoantigen peptide … (TP53 (G266E) missense)], for which the exchange rate with Pos peptide is 3.5%.
As to YQFTFDLLI (here or on the partner: biotinylated heavy chain) [P48 9-mer neoantigen peptide … (AR.p.H875Y missense)], the exchange rate with Pos peptide came out at 4.4%.
The same measure, in the same setting: as for IPVLTRWPL (here or on the partner: biotinylated heavy chain) [P19 9-mer neoantigen peptide … (TMEM222-LOC644961 fusion)], the figure is 4.1%; as for RAKCKFSIL (here or on the partner: biotinylated heavy chain) [P56 9-mer neoantigen peptide … (SPOP(F102C) missense)], 6.8%; as for RVGNCKHLK (here or on the partner: biotinylated heavy chain) [P82 9-mer neoantigen peptide … (AR-V7 splice variant)], 58.1%.
Still for that read-out and setting: as for LMAQRLLLR (here or on the partner: biotinylated heavy chain) [P97 9-mer neoantigen peptide … (FOXRED2-TXN2 fusion)], the figure is 39%; as for FLFLLLPLS (here or on the partner: biotinylated heavy chain) [P87 9-mer neoantigen peptide … (AR-Intron splice variant)], 2.4%; as for HVPKILSGK (here or on the partner: biotinylated heavy chain) [P58 9-mer neoantigen peptide … (AR (Q903H) missense)], 32.5%.
With IVWWCPMSR (here or on the partner: biotinylated heavy chain) [P98 9-mer neoantigen peptide … (TP53 (R213D) frameshift)], the exchange rate with Pos peptide came out at 51.1%.
For the molecule YLRRQKRLK (here or on the partner: biotinylated heavy chain) [P60 9-mer neoantigen peptide … (FOXA1.p.F266L missense)], the exchange rate with Pos peptide is 36.6%.

The next assay addresses HLA-A*24:02 class I complex (biotinylated heavy chain with beta2-microglobulin) (human). The description is as above. The following applies: remark: other sources report otherwise.
Turning to RAVRRMNTF (here or on the partner: biotinylated heavy chain) [P17 9-mer neoantigen peptide … (MSMB-NOCA4 fusion)], the exchange rate with Pos peptide came to 0.1%.
The same measure, in the same setting: the result for YCMAAPMGL (here or on the partner: biotinylated heavy chain) [P76 9-mer neoantigen peptide … (AR-V3 splice variant)] reads -0.5%; that for QLIAMDSAI (here or on the partner: biotinylated heavy chain) [P22 9-mer neoantigen peptide … (SLC45A3-ELK4 fusion)], 0%; that for CPMSRLRLA (here or on the partner: biotinylated heavy chain) [P46 9-mer neoantigen peptide … (TP53 (R213D) frameshift)], -0.4%.
As for LLERNSFEV (here or on the partner: biotinylated heavy chain) [P73 9-mer neoantigen peptide … (TP53 (G266E) missense)], the exchange rate with Pos peptide is 0.5%.
With YQFTFDLLI (here or on the partner: biotinylated heavy chain) [P48 9-mer neoantigen peptide … (AR.p.H875Y missense)], the exchange rate with Pos peptide came to 0.1%.
Still for that read-out and setting: as for IPVLTRWPL (here or on the partner: biotinylated heavy chain) [P19 9-mer neoantigen peptide … (TMEM222-LOC644961 fusion)], the figure is 0.1%.
Regarding RAKCKFSIL (here or on the partner: biotinylated heavy chain) [P56 9-mer neoantigen peptide … (SPOP(F102C) missense)], the exchange rate with Pos peptide was determined as 0.5%.
As for RVGNCKHLK (here or on the partner: biotinylated heavy chain) [P82 9-mer neoantigen peptide … (AR-V7 splice variant)], the exchange rate with Pos peptide is -0.1%.
For the molecule LMAQRLLLR (here or on the partner: biotinylated heavy chain) [P97 9-mer neoantigen peptide … (FOXRED2-TXN2 fusion)], the exchange rate with Pos peptide was determined as 0.1%.
Regarding FLFLLLPLS (here or on the partner: biotinylated heavy chain) [P87 9-mer neoantigen peptide … (AR-Intron splice variant)], the exchange rate with Pos peptide came to 0.2%.
In the case of CYLGRQKRF (here or on the partner: biotinylated heavy chain) [P61 9-mer neoantigen peptide … (FOXA1.p.R261G missense)], the exchange rate with Pos peptide turned out to be 90.3%.
For HVPKILSGK (here or on the partner: biotinylated heavy chain) [P58 9-mer neoantigen peptide … (AR (Q903H) missense)], the exchange rate with Pos peptide was 0.2%.
Still for that read-out and setting: as for IVWWCPMSR (here or on the partner: biotinylated heavy chain) [P98 9-mer neoantigen peptide … (TP53 (R213D) frameshift)], the figure is -0.1%; as for YLRRQKRLK (here or on the partner: biotinylated heavy chain) [P60 9-mer neoantigen peptide … (FOXA1.p.F266L missense)], 0.9%.

Another assay concerns the target HLA-B*07:02 class I complex (biotinylated heavy chain with beta2-microglobulin) (human). The description is as above. The conditions noted are these: remark: other sources report otherwise.
Regarding RAVRRMNTF (here or on the partner: biotinylated heavy chain) [P17 9-mer neoantigen peptide … (MSMB-NOCA4 fusion)], the exchange rate with Pos peptide was 38.7%.
Take YCMAAPMGL (here or on the partner: biotinylated heavy chain) [P76 9-mer neoantigen peptide … (AR-V3 splice variant)]: the exchange rate with Pos peptide turned out to be 91.5%.
In the case of QLIAMDSAI (here or on the partner: biotinylated heavy chain) [P22 9-mer neoantigen peptide … (SLC45A3-ELK4 fusion)], the exchange rate with Pos peptide is 8.3%.
Take CPMSRLRLA (here or on the partner: biotinylated heavy chain) [P46 9-mer neoantigen peptide … (TP53 (R213D) frameshift)]: the exchange rate with Pos peptide is 64.8%.
On the same count and under the same terms, as for LLERNSFEV (here or on the partner: biotinylated heavy chain) [P73 9-mer neoantigen peptide … (TP53 (G266E) missense)], the figure is 8.7%; as for YQFTFDLLI (here or on the partner: biotinylated heavy chain) [P48 9-mer neoantigen peptide … (AR.p.H875Y missense)], 12.8%; as for IPVLTRWPL (here or on the partner: biotinylated heavy chain) [P19 9-mer neoantigen peptide … (TMEM222-LOC644961 fusion)], 91.3%.
The same measure, in the same setting: as for RAKCKFSIL (here or on the partner: biotinylated heavy chain) [P56 9-mer neoantigen peptide … (SPOP(F102C) missense)], the figure is 82.5%; as for RVGNCKHLK (here or on the partner: biotinylated heavy chain) [P82 9-mer neoantigen peptide … (AR-V7 splice variant)], 12.9%; as for LMAQRLLLR (here or on the partner: biotinylated heavy chain) [P97 9-mer neoantigen peptide … (FOXRED2-TXN2 fusion)], 7%.
Still for that read-out and setting: as for FLFLLLPLS (here or on the partner: biotinylated heavy chain) [P87 9-mer neoantigen peptide … (AR-Intron splice variant)], the figure is 5%.
As for IVWWCPMSR (here or on the partner: biotinylated heavy chain) [P98 9-mer neoantigen peptide … (TP53 (R213D) frameshift)], the exchange rate with Pos peptide came to 6.7%.
For the molecule YLRRQKRLK (here or on the partner: biotinylated heavy chain) [P60 9-mer neoantigen peptide … (FOXA1.p.F266L missense)], the exchange rate with Pos peptide was 6.1%.
